Measured values as given in patent US20030148956A1 (PROCTER AND GAMBLE, published 2003).
Where two headings read alike, the source gives them in different places. Ends that are not written are not given here.

T1: corticotropin releasing factor 2 receptor
T1 sequence (Q13324 whole entry, species assumed, looked up): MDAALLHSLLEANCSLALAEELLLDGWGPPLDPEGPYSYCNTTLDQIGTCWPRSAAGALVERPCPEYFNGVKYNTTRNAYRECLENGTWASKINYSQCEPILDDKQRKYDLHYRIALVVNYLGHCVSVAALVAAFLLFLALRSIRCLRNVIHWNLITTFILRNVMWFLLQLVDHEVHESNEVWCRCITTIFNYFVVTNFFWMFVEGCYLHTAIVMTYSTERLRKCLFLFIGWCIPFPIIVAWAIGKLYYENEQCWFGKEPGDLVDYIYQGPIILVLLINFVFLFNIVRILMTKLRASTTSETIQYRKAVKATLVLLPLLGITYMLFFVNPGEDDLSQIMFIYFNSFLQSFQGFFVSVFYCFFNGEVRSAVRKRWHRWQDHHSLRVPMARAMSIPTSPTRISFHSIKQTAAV

T2: corticotropin releasing factor 2 receptor
T2 sequence (Q13324 whole entry, species assumed, looked up): T1 sequence (Q13324 whole entry, species assumed, looked up)


How the values were obtained:
Assay in all cases: cell-based or functional assay
[1] = molecular target: T1, corticotropin releasing factor 2 …
[2] = molecular target: corticotropin releasing factor 1 receptor
[3] = molecular target: T2, corticotropin releasing factor 2 …; remark: listed apart in the source
[4] = molecular target: corticotropin releasing factor 1 receptor; remark: listed apart in the source

Row | CRF2R EC50 [1] [nM] | CRF2R Emax % [1] [%] | CRF1R EC50 [2] [nM] | CRF1R Emax % [2] [%] | CRF2R EC50 [3] [nM] | CRF2R Emax % [3] [%] | CRF1R EC50 [4] [nM] | CRF1R Emax % [4] [%] | Binder
1 | > 100 | 60 | > 1000 | 10.2 |  |  |  |  | TKFTLSLDVPTNIMNLLFNIAKAKNLRAQAAANAHLMAQI (ends and bridges not checked) [human urocortin III fragment]
2 |  |  |  |  | 20.6 | 100 | 434 | 96 | ZGPPISIDLPLELLRKMIEIEKQEKEKQQAANNALLLATI (C-terminal amide) [SEQ ID NO 234]
3 |  |  |  |  | 19.7 | 100 | 138 | 99 | ZGPPISIDLPFQLLRKMIEIEKQEKEKQQAANNRLLLATI (C-terminal amide) [SEQ ID NO 250]
4 |  |  |  |  | 25.7 | 100 | 806 | 70 | ZGPPISIDLPLELLRKMIEIEKQEKEKQQAANNALLLDTI (C-terminal amide) [SEQ ID NO 235]
5 |  |  |  |  | 11.8 | 100 | 926 | 80 | ZGPPISIDLPFQLLRKMIEIEKQEKEKQQAANNALLLDTI (C-terminal amide) [SEQ ID NO 251]
6 |  |  |  |  | 100 | 36 | 708 | 6 | ZGPPISIDVPIGLLRKMIEIEKQEKEKQQAANNRLLLDTI (C-terminal amide) [SEQ ID NO 254]
7 |  |  |  |  | 12.6 | 99 | 308 | 99 | ZGPPISIDLPLHLLRKMIEIEKQEKEKQQAANNALLLATI (C-terminal amide) [SEQ ID NO 241]
8 |  |  |  |  | 41.8 | 86 | 1000 | 42 | ZGPPISIDVPTYLLRKMIEIEKQEKEKQQAANNRLLLDTI (C-terminal amide) [SEQ ID NO 253]
9 |  |  |  |  | 19.6 | 98 | 1000 | 32 | ZGPPISIDLPLQLLRKMIEIEKQEKEKQQAANNALLLDTI (C-terminal amide) [SEQ ID NO 248]
10 |  |  |  |  | 12.2 | 92 | 1000 | 50 | ZGPPISIDLPLQLLEKMIEIEKQEKEKQQAANNALLLATI (C-terminal amide) [SEQ ID NO 249]
11 |  |  |  |  | 22.2 | 93 | 1000 | 18 | ZGPPISIDLPIYLLRKMIEIEKQEKEKQQAANNALLLATI (C-terminal amide) [SEQ ID NO 237]
12 |  |  |  |  | 7.5 | 93 | 381 | 100 | ZGPPISIDLPLYLLRKMIEIEKQEKEKQQAANNALLLATI (C-terminal amide) [SEQ ID NO 245]
13 |  |  |  |  | 40.4 | 97 | 1000 | 15 | ZGPPISIDLPIYLLRKMIEIEKQEKEKQQAANNALLLDTI (C-terminal amide) [SEQ ID NO 236]
14 |  |  |  |  | 22 | 100 | 915 | 80 | ZGPPISIDLPLHLLRKMIEIEKQEKEKQQAANNALLLDTI (C-terminal amide) [SEQ ID NO 240]
15 |  |  |  |  | 8.8 | 98 | 300 | 100 | ZGPPISIDLPLYLLRKMIEIEKQEKEKQQAANNALLLDTI (C-terminal amide) [SEQ ID NO 244]
16 | > 100 | 33 | 27.4 | 98 |  |  |  |  | SQEPPISLDLTFHLLREVLEMTKADQLAQQAHSNRKLLDIA (ends and bridges not checked) [ovine corticotropin releasing factor fragment]
17 |  |  |  |  | 16.7 | 100 | 753 | 88 | ZGPPISIDLPLHLLRKMIEIEKQEKEKQQATTNARLLDTV (C-terminal amide) [SEQ ID NO 238]
18 |  |  |  |  | 16.8 | 100 | 440 | 96 | ZGPPISIDLPLYLLRKMIEIEKQEKEKQQATTNARLLDRV (C-terminal amide) [SEQ ID NO 243]
19 |  |  |  |  | 18.8 | 100 | 1000 | 34 | ZGPPISIDLPLQLLEKMIEIEKQEKEKQQATTNARLLDRV (C-terminal amide) [SEQ ID NO 247]
20 |  |  |  |  | 38.8 | 100 | 1000 | 33 | ZGPPISIDLPLQLLRKMIEIEKQEKEKQQATTNARLLDTV (C-terminal amide) [SEQ ID NO 246]
21 |  |  |  |  | 29 | 94 | 358 | 99 | ZGPPISIDLPLYLLRKMIEIEKQEKEKQQATTNARLLDTV (C-terminal amide) [SEQ ID NO 242]
22 |  |  |  |  | 13.2 | 100 | 587 | 80 | ZGPPISIDLPLHLLRKMIEIEKQEKEKQQATTNARLLDRV (C-terminal amide) [SEQ ID NO 239]
23 | 49.2 | 100 | 19.9 | 87 |  |  |  |  | SEEPPISLDLTFHLLREVLEMARAEQLAQQAHSNRKLMEII (ends and bridges not checked) [human corticotropin releasing factor fragment]
24 | 3.64 | 98 | > 100 | 9 |  |  |  |  | IVLSLDVPIGLLQILLEQARARAAREQATTNARILARV (ends and bridges not checked) [human urocortin II fragment]
25 | 3.52 | 100 | 9 | 100 |  |  |  |  | DNPSLSIDLTFHLLRTLLELARTQSQRERAEQNRIIFDSV (ends and bridges not checked) [human urocortin I fragment]
26 |  |  |  |  | 22.3 | 100 | 226 | 100 | ZGPPISIDLPTYLLRILIEIEKQEKEKQQAANNRLLLDTI (C-terminal amide) [SEQ ID NO 252]
27 |  |  |  |  | 7 | 100 | 33.3 | 84 | ZGPPISIDLPFQLLRILIEIEKQEKEKQQAANNRLLLDTI (C-terminal amide) [SEQ ID NO 255]
